In patent US20070184519A1 (published 2007) one finds IC50 data, which are given here for one molecule.

As usually defined, the IC50 is the concentration that gives 50% inhibition.

Assay in all cases: inhibition of radiolabelled probe peptide binding to purified MHC class II
Assay [1] addresses HLA-DR molecule DRB5*0101 (DR2w2a) (human).
In assay [2] the target is HLA-DR molecule DRB1*1101 (DR5w11) (human).
Assay [3] deals with HLA-DR molecule DRB4*0101 (DRw53) (human).
In assay [4] the target is HLA-DR molecule DRB1*1302 (DR6w19) (human).

GLRSLTTLLGALGAQ [EPO 101 analog peptide GLRSLTTLLGALGAQ (SEQ ID NO: 194)]: the IC50 in assay [1] came out at 294 nM; in assay [2], 2.6 nM; in assay [3] it was 13 nM; in assay [4], 858 nM.
